Experiments:
plasma norepinephrine = test: Plasma norepinephrine after renal IR (ELISA); assay type: in vivo; settings: 1.5 mg/kg; mice subjected to renal IR; vehicle 2.4±0.13 ng/mL
Description: (§1) Adult male renalase deficient (KO) mice (Wu et al., 2011, Kidney Int 79: 853-860) on a C57BL/6 background were subjected to renal ischemia/reperfusion (IR) as described (Kim et al., 2009, Kidney Int 75: 809-823; Kim et al., 2010, Am J Physiol Renal Physiol 299(2):F347-58). Renalase KO or wild type (WT) mice (C57BL/6 from Harlan Labs, Indianapolis, Ind.) were subjected to sham-operation or to 20 min. (moderate) or 30 min. (severe) renal ischemia and 24 hr. reperfusion. To test the renal protective effects of recombinant human renalase, mice were pretreated with saline (vehicle) or with recombinant renalase (0.5, 1.5 or 4.5 mg/kg, s.c.) 10 min. prior to 30 min. renal ischemia. It was also tested whether renalase treatment after completion of renal ischemia also provides renal protection. Separate cohorts of mice were treated with saline or with renalase (1.5 mg/kg, s.c.) 30 min. or 60 min. after reperfusion of the ischemic kidney. To test whether blocking alpha receptors would mimic the renal protective effects of human recombinant renalase administration, phentolamine (an alpha receptor antagonist, 5 mg/kg, i.p.) was given in some mice 15 min. before renal ischemia.
Plasma norepinephrine in mice subjected to sham-operation or to renal IR was measured with a commercial ELISA kit according to the manufacturer's instructions (Rocky Mountain Diagnostics, Colorado Springs, Colo.).

[1] = tested on: renal ischemia/reperfusion (IR) injury; test: Histological detection of necrosis, apoptosis, neutrophil and macrophage infiltration after renal IR; assay type: in vivo, mice
Description: Adult male renalase deficient (KO) mice (Wu et al., 2011, Kidney Int 79: 853-860) on a C57BL/6 background were subjected to renal ischemia/reperfusion (IR) as described (Kim et al., 2009, Kidney Int 75: 809-823; Kim et al., 2010, Am J Physiol Renal Physiol 299(2):[…]-58). Renalase KO or wild type (WT) mice (C57BL/6 from Harlan Labs, Indianapolis, Ind.) were subjected to sham-operation or to 20 min. (moderate) or 30 min. (severe) renal ischemia and 24 hr. reperfusion. To test the renal protective effects of recombinant human renalase, mice were pretreated with saline (vehicle) or with recombinant renalase (0.5, 1.5 or 4.5 mg/kg, s.c.) 10 min. prior to 30 min. renal ischemia. It was also tested whether renalase treatment after completion of renal ischemia also provides renal protection. Separate cohorts of mice were treated with saline or with renalase (1.5 mg/kg, s.c.) 30 min. or 60 min. after reperfusion of the ischemic kidney. To test whether blocking alpha receptors would mimic the renal protective effects of human recombinant renalase administration, phentolamine (an alpha receptor antagonist, 5 mg/kg, i.p.) was given in some mice 15 min. before renal ischemia. An established grading scale of necrotic injury (0-4, Renal Injury Score) to the proximal tubules was used for the histopathological assessment of IR-induced damage as outlined by Jablonski et al. (1983, Transplantation 35: 198-204) and as described in previous studies (Lee et al., 2004, J Am Soc Nephrol 15: 102-111; Lee et al., 2004, Am J Physiol Renal Physiol 286: […]-[…]). Apoptosis was detected after renal IR with TUNEL staining as described (Park et al., 2011, Lab Invest 91: 63-84) using a commercially available in situ cell death detection kit (Roche, Indianapolis, Ind.) according to the instructions provided by the manufacturer. Kidney neutrophil and macrophage infiltrations were assessed with immunohistochemistry 24 hr. after IR as described previously (Park et al., 2011, Lab Invest 91: 63-84). Neutrophils and macrophages infiltrating the kidney were quantified in 5-7 randomly chosen 200× (neutrophils) or 400× (macrophages) microscope images fields in the corticomedullary junction and results were expressed as neutrophils counted per 200-400× field.

HK-2 cells [2] = test: HK-2 cell necrosis induced with 2 mM H2O2 (LDH release); assay type: cell-based, human
Description: (§2) HK2 cells (human proximal tubular line) obtained from ATTC (Manassas, Va., USA) were cultured in DMEM/F12 supplemented with glutamine, 10% FBS and antibiotics, and were maintained at 37° C. in 5% CO2. Cells were exposed to cisplatin (20 μM) in the presence or absence of renalase for 24 hrs, and cell viability was assessed by the WST1 method (Roche Applied Science, Germany). Cells were then harvested in RIPA buffer (20 mM Tris-HCl pH 7.5, 150 mM NaCl, 1 mM Na2EDTA, 1 mM EGTA, 1% NP-40, 1% sodium deoxycholate, 2.5 mM sodium pyrophosphate, 1 mM β-glycerophosphate, 1 mM Na3VO4, 1 μg/ml leupeptin) supplemented with a protease and phosphatase inhibitor cocktail (Roche Applied Science, Germany). Proteins were separated by SDS-PAGE and Western blotting was carried out using the following antibodies: anti-renalase monoclonal (Desir et al., 2012, J Am Heart Assoc. 1:e002634; (Lee et al., 2013, J Am Soc Nephrol 24:445-455); anti caspase 3 (Cell Signaling Technology, MA, USA) and anti Bcl2 (Thermo Scientific, USA). Necrotic injury in HK-2 cells (ATCC, Manassas, Va.) was induced with exposure to 2 mM H2O2 for 2-8 hr and lactate dehydrogenase (LDH) released into cell culture media was measured as described using a commercial LDH assay kit (Promega, Madison, Wis.) (Lee and Emala, 2002, American journal of physiology. Renal physiology 282:F844-852).

[3] = tested on: PI3K/AKT and MAPK pathways; test: AKT and MAPK signaling and Bcl-2 expression by western blot; assay type: cell-based, human
Description: FIG. 12, comprising FIGS. 12A through 12E, is a set of images and graphs showing renalase upregulates Bcl-2, activates PI3K/AKT, ERK, p38, and inhibits JNK. Western blot analysis; P− indicates phosphorylated, activated proteins; signals normalized to GAPDH loading control, then changes in protein phosphorylation (increase=activation, decrease=inhibition) from time 0 are calculated. FIG. 12A: HK-2 and HUVEC cells incubated with renalase for 24 hrs; FIG. 12B: Western blot of time course of AKT and MAPK signaling by renalase, HK-2 cells incubated with renalase for indicated time; changes over baseline in 4c-d are significant (p<0.05); FIG. 12C: Activation of AKT(T308), AKT(5473) and ERK; FIG. 12D: Inhibition of JNK; FIG. 12E: Marked and sustained (60 min) upregulation of p38 by renalase in the presence of cisplatin, western blot for time course, REN=renalase, CP=cisplatin.
MAPK signaling by renalase and renalase peptides. Western blot analysis; ERK: Extracellular signal-Regulated Kinase 1 and 2; JNK: c-Jun N-terminal Kinases; AKT: protein kinase B; p-indicates phosphorylated, activated proteins; representative blot, n=3 (FIG. 20A). Renalase activates AKT (FIG. 20B). Western blot analysis; P− indicates phosphorylated, activated proteins Representative blot, n=3 (FIG. 20B, left panel). Signals normalized to GAPDH loading control; n=3, change over baseline statistically significant (P<0.05) from 1-60 min for ERK, p38 and AKT (T308), and at 30 min only for AKT (S473) (FIG. 20B, right panel). ERK or AKT inhibition abrogates protective effect of RP-H220 (FIG. 20C). Plasma creatinine levels from mice subjected to sham-surgery or to renal ischemia and reperfusion (IR); Renalase WT mice were subjected to sham-surgery or to 30 min renal IR. For mice subjected to renal IR, RP-H220 or vehicle (saline) was injected 10 min prior to renal ischemia. Some animals were pretreated with either the ERK inhibitor PD98059 or the PI3K/AKT inhibitor wortmanin. (N=6-8 per group). *: P<0.05 vs. vehicle-treated mice subjected to sham-surgery; #: P<0.05 vs. vehicle-treated WT mice subjected to renal IR (FIG. 20C).

[4] = tested on: renal ischemia/reperfusion (IR) injury; test: Murine model of renal ischemia/reperfusion (IR) injury, plasma creatinine; assay type: in vivo, mice
Description: as §1
Plasma creatinine was measured as described with an enzymatic creatinine reagent kit according to the manufacturer's instructions (Thermo Fisher Scientific, Waltham, Mass.) (Slot, 1965, J Clin Lab Invest 17: 381-387).
After animal care and use committee approval, adult male C57BL/6 (Harlan Labs, Indianapolis, Ind.) were subjected to sham-operation or to 30 minutes of renal ischemia followed by 24 hrs of reperfusion as previously described (Lee et al., 2004, American journal of physiology. Renal physiology 286:F298-306). To test the renal protective effects of renalase peptides (RP-220, RP-H220 and RP-224), mice were pretreated with saline (vehicle) or with renalase peptides (100 μg subcutaneous) 10 to 30 minutes prior to renal ischemia.
Blood was collected from mice anesthetized with isoflurane via cardiac puncture into a heparinized syringe and was subsequently centrifuged to separate plasma. Samples were submitted to the Yale O'Brien Kidney Center for measurement of BUN and creatinine. Plasma creatinine was measured either by an enzymatic creatinine reagent kit according to the manufacturer's instructions (Thermo Fisher Scientific, Waltham, Mass.) or by HPLC. These methods of creatinine measurement largely eliminate the interferences from mouse plasma chromagens, known to occur with the Jaffe method.

HK-2 cells [5] = test: HK-2 cell cisplatin toxicity (WST-1 viability, western blot); assay type: cell-based, human; settings: 20 μM cisplatin, 24 hrs
Description: Cultured HK-2 cells were incubated with 20 μM cisplatin for 24 hours with and without recombinant renalase. Renalase expression was examined by Western blot and cell viability (mitochondrial integrity) was determined spectrophotometrically using WST-1, a tetrazolium salt that is cleaved, by mitochondrial dehydrogenases of metabolically active and viable cells, to formazan (420-480 nm) (Boehringer Mannheim, Germany).
as §2

systemic blood pressure = settings: Xu et al., 2005, cited from earlier work
[6] = cited from earlier work
[7] = treated before renal ischemia, 30 min. ischemia, 24 hr. reperfusion

B1: recombinant renalase: human recombinant renalase, 38 kDa FAD-dependent amine oxidase; renalase polypeptide SEQ ID NO: 9 or 10 (protein, UniProt Q5VYX0 18-342, looked up)
Renalase: ALLRRQTSGPLYLAVWDKAEDSGGRMTTACSPHNPQCTADLGAQYITCTPHYAKKHQRFYDELLAYGVLRPLSSPIEGMVMKEGDCNFVAPQGISSIIKHYLKESGAEVYFRHRVTQINLRDDKWEVSKQTGSPEQFDLIVLTMPVPEILQLQGDITTLISECQRQQLEAVSYSSRYALGLFYEAGTKIDVPWAGQYITSNPCIRFVSIDNKKRNIESSEIGPSLVIHTTVPFGVTYLEHSIEDVQELVFQQLENILPGLPQPIATKCQKWRHSQVTNAAANCPGQMTLHHKPFLACGGDGFTQSNFDGCITSALCVLEALKNYI
plasma norepinephrine (plasma norepinephrine): 1.6 ± 0.2 ng/mL | apoptotic TUNEL-positive cells in the kidney ([1]; 1.5 mg/kg s.c. 10 min. before renal ischemia): significantly reduced the number of apoptotic TUNEL-positive cells | renal histological injury (hematoxylin and eosin) ([1]; 1.5 mg/kg, renalase WT mice vs. vehicle): dramatically reduced injury | Jablonski scale renal injury score (0-4) ([1]; renalase WT mice, 30 min. renal IR, 24 hr. after IR, vs. vehicle): significantly lower renal injury scores | macrophages infiltrating the kidney after IR (F4/80) [1, 7]: significantly reduced number of macrophages | neutrophils infiltrating the kidney after IR [1, 7]: significantly reduced number of neutrophils | LDH released at 6 hr (HK-2 cells [2]; 10 μg/ml, 2 mM H2O2, vehicle LDH=47+3%): 28±2% | necrosis induced with 2 mM H2O2 (HK-2 cells [2]; vs. vehicle-treated HK-2 cells): significantly reduced necrosis | Bcl-2 expression ([3]; HK-2 and human vein endothelial cells (HUVEC) at 24 hrs): upregulates Bcl-2 expression | decrease in JNK-p54/p46 phosphorylation ([3]; HK-2 cells): ~95% | AKT and MAPK signaling (phosphorylation of ERK, p38, AKT) ([3]; HK-2 cells in culture): rapid and transient increase in phosphorylated | activation of AKT ([3]; at 15 min, HK-2 cells): ~45 fold | activation of ERK ([3]; at 15 min, HK-2 cells): ~35 fold | activation of AKT and p38 ([3]; cells treated with cisplatin): marked and sustained activation | protection against renal IR injury, post-ischemic treatment ([4]; 1.5 mg/kg given 30 min. after reperfusion): protective against renal IR injury | renal protection at higher dose compared with 1.5 mg/kg ([4]; 4.5 mg/kg s.c. 10 min. before renal ischemia): provided reduced renal protection | increases in plasma creatinine after renal IR ([4]; 0.5, 1.5 or 4.5 mg/kg s.c. 10 min. before 30 min. renal ischemia, 24 hr. reperfusion): significantly attenuated the increases in plasma creatinine | protection against renal IR injury, post-ischemic treatment ([4]; given 60 min. after reperfusion): did not provide renal protection | plasma creatinine ([4]; recombinant renalase 1.5 mg/kg, 30 min. warm ischemia, decreased from ~2.4 mg/dL): 1.4 mg/dL | cell survival / protection against cisplatin toxicity (HK-2 cells [5]): improved HK-2 cell survival | cell survival / protection against cisplatin toxicity (HK-2 cells [5]; listed as exogenous renalase): reversed | Bcl-2 expression (HK-2 cells [5]; western blot): increased Bcl-2 expression | caspase-3 activation (HK-2 cells [5]; western blot): decreased caspase-3 activation | cellular renalase expression (HK-2 cells [5]; western blot): restored cellular renalase expression | caspase-3 activation (HK-2 cells [5]; western blot, listed as Renalase): inhibited caspase-3 activation | reduction of mean arterial pressure (systemic blood pressure; 4 mg/kg dose): ~40% | blood pressure when injected into rodents (systemic blood pressure): marked decrease in blood pressure | increase in rate of epinephrine metabolism in the presence of NADH [6]: 18 fold

Reference: patent US10066025B2, “Compositions and methods for detecting, treating and preventing diseases and disorders” (YALE UNIVERSITY, priority 2012, dated 2018)
